Data: publication PMC5694952 (The EMBO Journal, 2016)
Values belong to the binder of their own block, whether it stands above or below them.

T1: chloroplast ribosomal protein bL20c (spinach (Spinacia oleracea) (endogenous …, UniProt P28803 1-128))
T1 sequence (looked up): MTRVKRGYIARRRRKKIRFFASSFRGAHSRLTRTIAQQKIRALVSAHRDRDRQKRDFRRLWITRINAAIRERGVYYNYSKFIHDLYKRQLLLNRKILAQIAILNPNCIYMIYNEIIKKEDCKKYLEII

T2: chloroplast ribosomal protein uS13c (spinach (Spinacia oleracea) (endogenous …, UniProt P82163 48-172))
T2 sequence (looked up): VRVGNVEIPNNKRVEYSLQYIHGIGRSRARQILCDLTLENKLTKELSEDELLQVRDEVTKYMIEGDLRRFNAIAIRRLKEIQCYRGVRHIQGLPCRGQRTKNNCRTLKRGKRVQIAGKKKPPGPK

T3: chloroplast ribosomal protein uL13c (spinach (Spinacia oleracea) (endogenous …, UniProt P12629 48-250))
T3 sequence (looked up): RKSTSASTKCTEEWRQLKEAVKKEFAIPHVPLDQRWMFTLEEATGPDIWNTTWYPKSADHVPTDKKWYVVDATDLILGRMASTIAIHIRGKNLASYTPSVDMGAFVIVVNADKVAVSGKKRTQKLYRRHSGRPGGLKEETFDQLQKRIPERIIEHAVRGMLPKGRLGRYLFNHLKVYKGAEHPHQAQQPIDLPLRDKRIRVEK

T4: chloroplast ribosomal protein uL23c (spinach (Spinacia oleracea) (endogenous …, UniProt Q9LWB5 77-198))
T4 sequence (looked up): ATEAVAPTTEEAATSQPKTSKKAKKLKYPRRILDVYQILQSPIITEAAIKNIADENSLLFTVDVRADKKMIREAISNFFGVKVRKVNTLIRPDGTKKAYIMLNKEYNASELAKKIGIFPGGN

T5: chloroplast ribosomal protein bS1c (spinach (Spinacia oleracea) (endogenous …, UniProt P29344 42-411))
T5 sequence (looked up): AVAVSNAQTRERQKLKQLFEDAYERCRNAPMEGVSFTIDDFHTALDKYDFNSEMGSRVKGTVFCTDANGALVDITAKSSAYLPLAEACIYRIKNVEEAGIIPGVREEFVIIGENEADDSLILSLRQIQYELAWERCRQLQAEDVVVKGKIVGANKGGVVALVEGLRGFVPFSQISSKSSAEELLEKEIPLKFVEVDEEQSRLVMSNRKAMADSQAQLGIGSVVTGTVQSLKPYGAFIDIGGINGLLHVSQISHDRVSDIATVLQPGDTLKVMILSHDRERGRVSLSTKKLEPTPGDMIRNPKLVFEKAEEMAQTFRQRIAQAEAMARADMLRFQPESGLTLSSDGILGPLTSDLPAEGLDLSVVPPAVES

B1: plastid-specific ribosomal protein cL38 (natural protein, UniProt P82411 48-116, looked up)
chain: SSRPQKKGTAHHMKTRPKKTARWDIKRGPAVYPPLPPLPAEWTIVSSAVDEADSSSSTTSSSAEIAQSA
B2: chloroplast ribosomal protein uS3c (natural protein, UniProt P09595 1-218, looked up)
chain: MGQKINPLGFRLGTTQSHYSLWFSQPKNYAEGLQEDQKIRDCIKNYVQKNTKTSSGVEGIARIEIQKRIDLIQVIIHMGFPKLLIENRPQGVEDLKINVQKELNCVNRKLNIAITRIAKPYGDPNILAEFIAGQLKSRVSFRKAMKKAIELTEQADTKGIQIQIAGRIDGKEIARIEWIREGRVPLQTIRAKIDYCAYTVRTIYGVLGIKIWIFMGEE
B3: chloroplast ribosomal protein bL21c (natural protein, UniProt P24613 56-256, looked up)
chain: AKRRRFQEIPEELKAEFEEFQRPPNQKPQLSDVLPDDFQAPEPGTPEYNDIINQFLPKKGPPPPREEIFAVVVIGSRQYIVIPGRWIYTQRLKGATVNDKIVLNKVLLVGTKASTYIGTPIVTNAAVHAVVEEQLLDDKVIVFKYKKKKNYRRNIGHRQPITRIKITGITGYEDYPASTLEAEVEAKEEAEAEAEAEAVPV
B4: chloroplast ribosomal protein uL29c (natural protein, UniProt P82248 59-168, looked up)
chain: VKKEDELKELRTKTNEQLNEEILQLKGELFMLRLQRSARENFKPSDFGRMRKRVARMLTVKREREIEQGVGKRLSRKLDKAWKRSIVVRPPPSLKKLQEKATAEAEAEKA
B5: chloroplast ribosomal protein uS2c (natural protein, UniProt P08242 1-236, looked up)
chain: MTRRYWNINLEEMMEAGVHFGHGTRKWNPRMSPYISAKCKGIHIINLTRTARFLSEACDLVFDASSRGKQFLIVGTKNKAADSVARAAIRARCHYVNKKWLGGMLTNWSTTETRLHKFRDLRMEQTAGRLARLPKRDAAVVKRQLSHLQTYLGGIKYMTGLPDIVIIVDQQEEYTALRECITLGIPTICLIDTNCNPDLADISIPANDDAIASIRLILTKLVFAICEGRSSYIRNP
B6: chloroplast ribosomal protein uL22c (natural protein, UniProt P09594 1-199, looked up)
chain: MGFFKKKEKKAEFDVFRLYGLHHPEPGKCDEITTRGYSISMSVDKARRVIDQIRGRSYAETLMILELMPYRACYPIFKLIYSAAANASHNKQFNKANLIISKAEVNKGITLKKVKPRARGRSYMIKRPTCHITIVLRDITHFDSYDKFLESLTPKKLIALLGLMSTGRRRELLCGRFRENHKIKSFLYKIALFKRYEVM
B7: chloroplast ribosomal protein uS5c (natural protein, UniProt Q9ST69 56-308, looked up)
chain: CIKKDDIDITFFEQDNPDEEITFDPPEKPEGYIPPRAVDEPPFESEEEIALAYEELYGAAYSGESLLGNDVYAMDSKIKKATGFGSKSKKEKIRDGFEENVVQVRRVTKVVKGGKHMRFRAIVVVGDKKGQVGVGVGKAKEVVSAVQKAAVDARRNIITVPMTKYLTFPHRNEADYGAARVMLRPAAPGTGVIAGGAVRTVLEMAGVENALGKQLGSNNALNNARATIVAVQTMRQFSDVARDRGIPMEELWK

Tests used:
Test in all cases: cryo-EM structure
[1] = molecular target: B3
[2] = molecular target: T1, chloroplast ribosomal protein bL20c
[3] = molecular target: T2, chloroplast ribosomal protein uS13c
[4] = molecular target: B7
[5] = molecular target: T3, chloroplast ribosomal protein uL13c
[6] = molecular target: T4, chloroplast ribosomal protein uL23c
[7] = molecular target: T5, chloroplast ribosomal protein bS1c

Binder: B1
binding result [1]: binds
binding result [2]: binds

binding result [3]: binds
Binder: GRGDRKTAKGKRFNHSFGNARPKNKNKGRGPPKAPIFPKGDPSQKED (natural protein, UniProt P47910 55-101, looked up) [plastid-specific ribosomal protein bTHXc]

Binder: B2
binding result [4]: binds

Binder: B3
binding result [5]: binds

Binder: B4
binding result [6]: binds

Binder: B5
binding result [7]: binds
binding result [4]: binds

Binder: B6
binding result [5]: binds

Binder: B7
binding result [7]: binds
